We go through one molecule from paper PMC13218722 (2026).

As a reminder, the Kd is the free concentration of one partner at which half of the binding sites on the other are occupied at equilibrium, for simple one-to-one binding. Higher therefore signals a looser complex.

The target of the experiment is LFA-1 (Homo sapiens, UniProt P20701). The experiment in a line: BLI. In general terms: In BLI a coated tip is dipped into the sample, and binding shifts an interference pattern.
Chain of LFA-1 (P20701 26-1170, chain 1 of 2): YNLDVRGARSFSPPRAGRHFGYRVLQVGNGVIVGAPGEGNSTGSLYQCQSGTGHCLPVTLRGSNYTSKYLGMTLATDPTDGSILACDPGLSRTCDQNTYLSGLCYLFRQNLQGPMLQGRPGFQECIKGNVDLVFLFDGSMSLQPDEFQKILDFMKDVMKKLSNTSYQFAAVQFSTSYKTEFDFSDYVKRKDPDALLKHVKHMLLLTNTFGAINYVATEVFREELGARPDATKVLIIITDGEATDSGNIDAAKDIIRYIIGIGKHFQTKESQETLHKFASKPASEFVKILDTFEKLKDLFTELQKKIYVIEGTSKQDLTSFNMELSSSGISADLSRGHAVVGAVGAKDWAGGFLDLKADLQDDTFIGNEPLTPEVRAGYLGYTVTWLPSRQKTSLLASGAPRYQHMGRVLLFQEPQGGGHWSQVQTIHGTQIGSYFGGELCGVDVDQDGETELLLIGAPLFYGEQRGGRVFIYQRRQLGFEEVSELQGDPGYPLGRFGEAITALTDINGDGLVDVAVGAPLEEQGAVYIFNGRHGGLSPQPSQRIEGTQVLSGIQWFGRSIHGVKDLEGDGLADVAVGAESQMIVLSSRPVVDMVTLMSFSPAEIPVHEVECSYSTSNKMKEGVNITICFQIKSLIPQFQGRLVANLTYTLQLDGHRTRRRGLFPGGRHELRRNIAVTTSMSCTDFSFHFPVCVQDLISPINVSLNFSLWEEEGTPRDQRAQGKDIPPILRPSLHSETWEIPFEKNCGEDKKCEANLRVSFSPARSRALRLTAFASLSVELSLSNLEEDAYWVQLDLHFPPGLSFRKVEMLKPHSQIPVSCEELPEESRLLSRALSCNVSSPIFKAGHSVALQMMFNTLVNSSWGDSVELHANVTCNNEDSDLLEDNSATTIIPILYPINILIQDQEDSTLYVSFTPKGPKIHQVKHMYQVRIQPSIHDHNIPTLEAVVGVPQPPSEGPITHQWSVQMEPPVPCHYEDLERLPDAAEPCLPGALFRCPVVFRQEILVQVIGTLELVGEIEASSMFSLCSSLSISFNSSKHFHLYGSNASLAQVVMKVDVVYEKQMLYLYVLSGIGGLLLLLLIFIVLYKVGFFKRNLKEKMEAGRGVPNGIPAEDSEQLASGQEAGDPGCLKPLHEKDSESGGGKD
Chain of LFA-1 (chain, as listed by the source, chain 2 of 2): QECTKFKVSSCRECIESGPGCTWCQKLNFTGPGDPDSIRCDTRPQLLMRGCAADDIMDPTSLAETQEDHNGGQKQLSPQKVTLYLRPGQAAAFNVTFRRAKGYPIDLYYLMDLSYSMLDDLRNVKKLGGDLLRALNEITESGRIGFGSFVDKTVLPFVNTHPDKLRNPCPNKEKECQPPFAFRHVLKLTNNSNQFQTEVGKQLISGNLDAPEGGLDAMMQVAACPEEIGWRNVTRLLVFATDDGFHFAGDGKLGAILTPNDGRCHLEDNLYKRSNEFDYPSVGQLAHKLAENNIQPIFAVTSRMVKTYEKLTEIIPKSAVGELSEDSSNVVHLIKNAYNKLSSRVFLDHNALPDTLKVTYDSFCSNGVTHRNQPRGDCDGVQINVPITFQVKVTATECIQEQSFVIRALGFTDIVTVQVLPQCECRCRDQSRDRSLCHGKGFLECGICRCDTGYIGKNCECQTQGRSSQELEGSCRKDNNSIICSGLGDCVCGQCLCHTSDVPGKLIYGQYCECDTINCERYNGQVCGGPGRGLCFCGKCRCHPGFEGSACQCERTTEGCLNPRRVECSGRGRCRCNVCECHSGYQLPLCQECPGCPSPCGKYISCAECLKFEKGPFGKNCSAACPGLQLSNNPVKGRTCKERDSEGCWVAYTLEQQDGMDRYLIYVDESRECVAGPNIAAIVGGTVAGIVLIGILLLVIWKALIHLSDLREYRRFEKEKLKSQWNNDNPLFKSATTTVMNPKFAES

B1: GBP-130 ectodomain (protein)
chain: MRLSKVSDIKSTGVSNYKNFNSKNSSKYSLMEVSKKNEKKNSLGAFHSKKILLIFGIIYVVLLNAYICGDKYEKAVDYGFRESRILAEGEDTCARKEKTTLRKSKQKTSTRTVATQTKKDEENKSVVTEEQKVESDSEKQKRTKKVVKKQINIGDTENQKEGKNVKKVIKKEKKKEESGKPEENKHANEASKKQEPKASKVSQKPSTSTRSNNEVKIRAASNQETLTSADPEGQIMREYAADPEYRKHLEIFYKILTNTDPNDEVERRNADNKEDLTSADPEGQIMREYASDPEYRKHLEIFYKILTNTDPNDDVERRNADNKEDLTSADPEGQIMREYAADPEYRKHLEVFHKILTNTDPNDEVERRNADNKEDLTSADPEGQIMREYAADPEYRKHLEVFHKILTNTDPNDEVERRNADNKELTSSDPEGQIMREYAADPEYRKHLEVFHKILTNTDPNDEVERRNADNKEDLTSADPEGQIMREYAADPEYRKHLEVFHKILTNTDPNDEVERRNADNKEDLTSADPEGQIMREYAADPEYRKHLEIFHKILTNTDPNDEVERRNADNKEDLTSADPEGQIMREYAADPEYRKHLEIFYKILTNTDPNDEVERRNADNKEELTSSDPEGQIMREYAADPEYRKHLEIFHKILTNTDPNDEVERRNADNKEDLTSADPEGQIMREYAADPEYRKHLEIFYKILTNTDPNDEVERRNADNKEDLTSADPEGQIMREYASDPEYRKHLEIFYKILTNTDPNDDVERRNADNKEDLTSADPEGQIMREYAADPEYRKHLEVFHKILTNTDPNDEVERQNADNNEA
B1 returned an equilibrium dissociation constant (Kd) of 15 nM.
